Test results: EP1073891B1, “METHOD OF PREDICTING RECEPTOR MODULATING ACTIVITY” (Duke University, priority 1998, dated 1999)

Assays:
Type in all cases: cell-based
ERα = target: T1, ERα (Homo sapiens, UniProt P03372); experiment: Disruption of ER mediated transcriptional activity, C3-Luc reporter in HepG2 cells (Example 4.4); conditions: Gal4-peptide fusion; for block of the partial agonist activity of tamoxifen: 4-OH tamoxifen activated ER; for inhibition of the ability of estradiol to activate transcription: estradiol (10 nM) activated ER
T1 sequence (P03372 1-595): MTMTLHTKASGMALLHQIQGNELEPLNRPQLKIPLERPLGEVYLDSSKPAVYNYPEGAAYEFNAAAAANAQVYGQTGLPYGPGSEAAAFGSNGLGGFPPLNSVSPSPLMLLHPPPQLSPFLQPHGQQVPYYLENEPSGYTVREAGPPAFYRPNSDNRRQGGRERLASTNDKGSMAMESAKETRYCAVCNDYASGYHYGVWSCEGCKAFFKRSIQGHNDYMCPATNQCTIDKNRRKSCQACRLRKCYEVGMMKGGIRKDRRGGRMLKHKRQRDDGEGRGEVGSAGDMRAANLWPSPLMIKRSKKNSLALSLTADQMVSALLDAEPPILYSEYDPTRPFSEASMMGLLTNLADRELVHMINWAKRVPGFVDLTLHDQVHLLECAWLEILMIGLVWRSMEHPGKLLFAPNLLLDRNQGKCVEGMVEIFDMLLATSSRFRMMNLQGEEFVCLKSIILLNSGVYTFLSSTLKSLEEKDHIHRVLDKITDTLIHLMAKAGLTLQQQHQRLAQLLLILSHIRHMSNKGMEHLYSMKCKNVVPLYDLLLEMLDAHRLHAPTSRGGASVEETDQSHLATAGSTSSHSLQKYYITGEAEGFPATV
Excerpt: Then HepG2 cells were transfected as above except that expression vectors for Gal4-peptide fusions were included as indicated in 10B. […] Increasing amounts of input plasmid for each Gal4-peptide fusion is also shown with the resulting transcriptional activity presented as % activation of control.

[1] = target: T2, glucocorticoid receptor (GR-VP16) (Homo sapiens, UniProt P04150); experiment: Mammalian two-hybrid, specificity of peptide-nuclear receptor interaction (Example 4.2); conditions: mammalian two-hybrid (Fig. 8)
T2 construct: expressed in transfected cells
T2 sequence (P04150 1-777): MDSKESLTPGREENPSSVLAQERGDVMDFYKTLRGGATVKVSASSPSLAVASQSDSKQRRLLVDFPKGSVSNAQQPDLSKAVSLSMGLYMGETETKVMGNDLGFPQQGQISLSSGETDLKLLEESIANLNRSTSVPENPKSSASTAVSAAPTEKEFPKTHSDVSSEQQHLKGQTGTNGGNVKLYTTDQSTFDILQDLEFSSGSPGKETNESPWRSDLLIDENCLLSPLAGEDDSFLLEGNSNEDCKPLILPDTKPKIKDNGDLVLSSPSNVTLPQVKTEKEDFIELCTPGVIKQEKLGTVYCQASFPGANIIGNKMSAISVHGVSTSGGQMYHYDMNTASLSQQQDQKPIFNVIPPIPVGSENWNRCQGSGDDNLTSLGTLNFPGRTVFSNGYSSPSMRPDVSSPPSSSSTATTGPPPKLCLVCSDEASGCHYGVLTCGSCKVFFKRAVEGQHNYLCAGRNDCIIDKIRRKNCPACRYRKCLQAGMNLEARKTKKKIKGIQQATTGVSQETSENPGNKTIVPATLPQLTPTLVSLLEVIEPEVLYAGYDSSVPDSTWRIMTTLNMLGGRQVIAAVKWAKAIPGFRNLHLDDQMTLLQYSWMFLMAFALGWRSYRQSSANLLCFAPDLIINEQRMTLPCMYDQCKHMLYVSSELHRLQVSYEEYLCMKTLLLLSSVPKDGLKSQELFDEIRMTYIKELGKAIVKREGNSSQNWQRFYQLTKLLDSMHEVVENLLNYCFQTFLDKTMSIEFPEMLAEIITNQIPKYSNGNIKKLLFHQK
Excerpt: (§1) Peptide sequences representing each class was fused to the DNA binding domain (DBD) of the yeast transcription factor Ga14. HepG2 cells were then transiently transfected with expression vectors for ERα-VP16 and the Gal4-peptide fusion proteins. In addition, a luciferase reporter construct under the control of 5 copies of a Ga14 upstream enhancer element was also transfected along with a pCMV-β galactosidase vector to normalize for transfection efficiency. Transfection of the Ga14 DBD alone is included as control. Cells were then induced with various ligands as indicated in the figure and assayed for luciferase activity and β galactosidase activity. Normalized response was obtained by dividing the luciferase activity by the β galactosidase activity.
(§2) The specificity of peptide-nuclear receptor interaction was analyzed (Fig. 8) using the mammalian two-hybrid system. Experimental design is the same as in figure 2 except that either progesterone receptor (PRB-VP16), estrogen receptor beta (ERβ-VP16), glucocorticoid receptor (GR-VP16) or thyroid receptor beta (TRβ-VP16) was tested.

[2] = target: T3, thyroid receptor beta (TRβ-VP16) (Homo sapiens, UniProt P10828); experiment: as above; conditions: mammalian two-hybrid (Fig. 8)
T3 construct: expressed in transfected cells
T3 sequence (P10828 1-461): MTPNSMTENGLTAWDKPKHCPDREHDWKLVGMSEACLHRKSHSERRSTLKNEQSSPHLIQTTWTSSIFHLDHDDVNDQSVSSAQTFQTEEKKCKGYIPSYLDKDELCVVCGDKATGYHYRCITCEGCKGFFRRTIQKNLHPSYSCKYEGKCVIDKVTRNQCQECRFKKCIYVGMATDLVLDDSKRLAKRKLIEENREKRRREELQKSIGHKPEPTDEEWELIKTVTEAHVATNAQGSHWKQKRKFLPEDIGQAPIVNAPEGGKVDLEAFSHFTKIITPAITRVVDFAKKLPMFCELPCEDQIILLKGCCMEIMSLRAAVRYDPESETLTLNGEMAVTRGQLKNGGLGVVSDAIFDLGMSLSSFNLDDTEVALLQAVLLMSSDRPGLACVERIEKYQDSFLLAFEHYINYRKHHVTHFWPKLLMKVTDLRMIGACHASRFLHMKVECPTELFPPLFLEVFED
Excerpt: as §1, §2

| block of the partial agonist activity of tamoxifen (ERα) | block of estradiol mediated transcription (ERα) | inhibition of the ability of estradiol to activate transcription (ERα) | Sequence | interaction with GR [1] | interaction with TRβ [2] |
| --- | --- | --- | --- | --- | --- |
| efficiently block | inability |  | SSPGSREWFKDMLSR [α/β V] |  |  |
| efficiently block | inability |  | SSWDMHQFFWEGVSR [α/β III] | None of the receptors tested interact significantly | None of the receptors tested interact significantly |
| efficiently block |  | up to 50% | SSLTSRDFGSWYASR [α II] | None of the receptors tested interact significantly | None of the receptors tested interact significantly |
| is not |  | up to 50% | SSNHQSSRLIELLSR [α/β I] | interact with the αβ I peptide in the presence of the appropriate agonist | interact with the αβ I peptide in the presence of the appropriate agonist |
